Data published in the RNAGym collection of RNA variant scans (doi:10.1073/pnas.2313332121).
Variants at the floor of the assay were thinned out.

B1: TPR 5TU (parent)
chain: GGAUCUUCUCGAUCUAACAAAAAAGACAAAUCUGCCACAAAGCUUGAGAGCAUCUUCGGAUGCAGAGGCGGCAGCCUUCGGUGGCGCGAUAGCGCCAACGUUCUCAACUAUGACACGCAAAACGCGUGCUCCGUUGAAUGGAGUUUAUCAUG

Variants of: B1
Assay: polymerase ribozyme fitness, log enrichment relative to wild type (log ratio); higher = more active; in vitro selection for triplet polymerase activity
How it was run: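 Both subunits of a heterodimeric triplet polymerase ribozyme were given their own mutant library, built by PCR and transcribed. Each library was annealed with a biotinylated primer, the partner subunit and triplets, incubated frozen at −7 °C, and its extended constructs gel-excised, captured on streptavidin beads and amplified by RT-PCR, all in one round done in triplicate. Fitness is the logarithm of genotype enrichment relative to wild-type enrichment, with replicates averaged by inverse-variance weighting. That logarithm is base 2, and Illumina-sequenced genotypes needed ≥10 input reads and ≥1 read per output.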

Variant	polymerase ribozyme fitness (log ratio)
G70C C96U G100A C118G A120C	≤ -4.2
C75G C85U U101C	≤ -4.2
A73U A150G	-2.68
A73G A97G	0.222
A73G A107U	-4.1
C75G C85U C87A A113G	≤ -4.2
C72G U77G G84A C114G	≤ -4.2
A73G G86A	-2.14
A73U U90G G117U G133U	≤ -4.2
G70C G88U A97C	≤ -4.2
G71A C99U	≤ -4.2
C75A C87U	-3.81
C75U C85U U111G A121U G152A	≤ -4.2
G70A C76A C79G A91U	≤ -4.2
C72U C93G U130C G133C	≤ -4.2
C72A U78G C85U A97U G140C	≤ -4.2
A73U C96U C108G G141A U146G	≤ -4.2
C75U C93U G143U	-3.61
C75G U82G A91C	≤ -4.2
C75G G92C C123A	≤ -4.2
C72G G83U G124U G128U G133A U148A	≤ -4.2

Variant	polymerase ribozyme fitness (log ratio)
A73U G80U	-2.82
A73U C96G	-1.8
A73C C96G C118U G143U	≤ -4.2
C72G C108U A137C	≤ -4.2
G74U C85G	≤ -4.2
C75G A89U C93G U104G A147C	≤ -4.2
C75U C96A G128U	-3.56
C72U G128U	-3.1
G70C G83C C105U C125U	≤ -4.2
A73U C118U	-0.982
C75U A137C	-3.47
A73U C99A C103G C114U C123G	≤ -4.2
G74A A106G A122U	≤ -4.2
C75G U77A A91G A106U U134G	≤ -4.2
A73U C95A U104G	-4.05
C75U C85A	-1.84
C75U C85U	0.543
G71A G94A	-2.94
C75U A91G U104A U139A	≤ -4.2
G70A G88C C96G U134G	≤ -4.2
G74A U77A G92U G112U G124A	≤ -4.2

Variant	polymerase ribozyme fitness (log ratio)
C72G G81U C87A C95U U104A	≤ -4.2
G74A A150U	-2.61
G71U C93U U104G C149A	≤ -4.2
C72U C87U C105A	-3.79
C75G G81U G84C A137U U146C	≤ -4.2
A73G C87G U101G U139C	≤ -4.2
G71U U144G	-1.84
C75G C96U A120C	≤ -4.2
C75G G86C C87U	≤ -4.2
A73G C96U A119U	-0.341
A73G U145G	-0.0134
G70A C93U G141C	≤ -4.2
A73C A91G C116U	≤ -4.2
A73U G100U U104A G126C	≤ -4.2
A73G C85U G88A A119U U134A G140C	≤ -4.2
G70A C96U	-2.89
C69U G94C	-1.65
G74A A106C A142C	≤ -4.2
G70A G86U	-3.77
G70C G126U G152A	-3.99
A73U C85U G117U	-0.841

Variant	polymerase ribozyme fitness (log ratio)
C69U G70C C93G C114A A150C	≤ -4.2
G74C A97U C132A G141A G143C	≤ -4.2
G71C A119G	-3.01
G71A C96A	-3.18
A73U G83C G143C	≤ -4.2
G74U G88A A119U C125U	-3.95
A73G C87A	-4.18
A73G C87U	-1.55
C75A U135C	≤ -4.2
G70U G136A	-1.86
A73G C95U	-0.166
A73G G84U	-1.29
G71U G84U U101C G117U C123U	-4.15
G70C C103G A120G U127C U134C	≤ -4.2
G70A G84U C116A	-4.13
C75A C76U G86U A106U G126A U148C C149A	≤ -4.2
G71U G83C	-2.74
G71U G83U	-3.48
C72U C95U C96U U146A	-2.06
G74A U145A	-3.36
A73U G80A C93U U146G	-3.03
